Measurements as given in paper PMC7378068.

Target: T1, IL-1R1 (mouse IL-1R complex on HEK-Blue-IL1R cells) (mouse) (UniProt P13504)
T1 sequence: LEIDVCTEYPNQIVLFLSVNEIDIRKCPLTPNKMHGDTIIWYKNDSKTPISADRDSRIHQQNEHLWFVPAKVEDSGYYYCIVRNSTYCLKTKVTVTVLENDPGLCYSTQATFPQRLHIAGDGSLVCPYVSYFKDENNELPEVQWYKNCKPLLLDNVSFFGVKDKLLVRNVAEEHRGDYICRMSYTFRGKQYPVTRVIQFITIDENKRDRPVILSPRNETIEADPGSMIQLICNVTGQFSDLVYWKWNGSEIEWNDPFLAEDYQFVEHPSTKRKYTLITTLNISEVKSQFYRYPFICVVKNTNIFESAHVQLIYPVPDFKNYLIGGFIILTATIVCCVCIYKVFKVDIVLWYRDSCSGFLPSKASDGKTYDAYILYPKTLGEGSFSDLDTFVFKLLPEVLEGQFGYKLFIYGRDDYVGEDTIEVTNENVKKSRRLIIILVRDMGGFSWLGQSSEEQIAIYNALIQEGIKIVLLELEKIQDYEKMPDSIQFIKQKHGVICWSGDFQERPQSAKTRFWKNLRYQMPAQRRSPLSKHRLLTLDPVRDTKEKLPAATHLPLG

NF-κB-driven expression of a luciferase reporter in HEK-Blue-IL1R cells; fold reduction in activity compared with WT IL-1β: 168 fold
Substance: human IL-1β mutant Q148G (from UniProt P01584 117-269) (ligand)
